In the nanobody polyreactivity screen of Harvey et al. (2022):

Experiment: yeast display, Sf9 membrane polyspecificity reagent, FACS + sequencing; frameworks hold sequencing errors
Summary of the method: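 Galactose-induced (36–48 hours) yeast carrying a synthetic nanobody display library were exposed to 10% biotinylated, detergent-solubilized Sf9 membrane reagent at 4 °C for 1 hour. FACS followed streptavidin microbead enrichment, using low and high (top ~1%) gates for expression (anti-HA) and reagent binding (streptavidin). Colony PCR, MiSeq 2 × 250 sequencing and CDR-length filtering followed. Labels for polyreactivity reflect the gate of origin.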

Row | Sequence | polyreactivity (PSR sort gate)
1 | QVQLVESGGGLVQAGGSLRLSCAASGRILASYAMGWYRQAPGKERELVAAIRYRGSTSYADSVKGRFTISRDNAKNTVYLQMNSLKPEDTAVYYCNAGLEYYYWGYTWEFDYWGQGTQVTVSS | low polyreactivity
2 | QVQLVESGGGLVQAGGSLRLSCAASGFIFRINAMGWYRQAPGKERELVARITSGGSTYYADSVKGRFTISRDNAKNTVYLQMNSLKPEDTAVYYCAARVKYYGSQSRYYWGQVTQVTVSS | high polyreactivity
3 | QVQLVESGGGLDQAGGSLRLSCAASGSTFGYYAMGWYREAPGKERELVASITSDGSTNYADSVKGRFTISRDNAKNTVYLQMNSLKPEDTAVYYCAAYVWRYWHEYDYWGQGTLVTVSS | low polyreactivity
4 | QVQLVESGGGLVQAGGSLRLSCAASGFTFGSYAMGWYRQAPGKDRELVAAISSNGGNTYYADSVKGRFTISRDNAKNTVYLQMNSLKPEDTAVYYCARDRQSRSLLEYDFWGQGTQVTVSS | high polyreactivity
5 | QVQLVESGGGLVQAGGSLRLSCAASGYIFQTYAMGWYRQAPGKEREFVAAITSGAGRTSYADSVKGRFTISRDNAKNTVYLQMNSLKPEDTAVYYCAARWRYQLSGSRLSYGKYDYWGQGTQVTVSS | high polyreactivity
6 | QVQIVESGGGLVQAGGSLRISCAASGLIYSSYGMGWYRQAPGKERELVAAISSGGSTYYADSVKGRFSISRDNAKNTVYLQKKSLKPEDTAVYYCADGVLYPYWYSTYYPDCQYYYWGHGTQVTVSS | low polyreactivity
7 | QVQLVESGGGLVQAGGSLRLSCAASGSIFVSNAMGWYRQAPGKERELVAAITARDVSTYYADSVKGRFTISRDNAKNTVYLQMISLKPEDTAVYYCAGNSSTYPSDDSYVYWGQGTQVTVSS | low polyreactivity
8 | QVQLVESGGGLVQAGGSLRLSCAPSGRTFWYNAMGWYRQAPGKERELVATITSGGRTSYADSVKGRFTISRDNAKNTVYLQMNSLKPEDTAVYYCAATTGWYGARYGYWGQGTQVTVSS | high polyreactivity
9 | QVQLVESGGGLVQAGGSLRLSCAHSGSISSRYAMGWYRQAPGKERELVARITRSGGSTYYADSVKGRFTISRDNAKNTVYLQMNRLKPEDTAVYYCNKRGTEIGYDYWGQGTQVTVLS | low polyreactivity
10 | QVQLVESGGGLVQAGVILRLSCAASGRIITTYAMGRYRQAPGKERELVAAISARGGRTYYADSVKGRFTISRDNAKNTVYLQMNSLKPEDTAVYYCAAVSIQAYTRRQYDWGQGTQVTVSS | high polyreactivity
11 | QVQLVESGGGLVQAGGSLRLSCAASGLTFTWYTMGWYRQAPGKERELVAAITSGGSTNYADSVKGSFTISRDNAKNTVYLQMNSLKPEDTAVYYCAASRTFYWWEYGYWGQGTQVTVSS | high polyreactivity
12 | QVQLVESGGGLVQAGGSLRLSCAASGFTFEYYAMGWYRQAPWKERELVATITWNGGSTYYADSVKGRFTISRDNAKNTVYFQMNSLKPEDTAVYYCAADEQAYYVRRFDYWGQGTQVTVSS | low polyreactivity
13 | QVQLVESGGGVVQAGGSLRLSCAASGSIFAGIAMGWYRQAPGKERELVADITSGDSTYYADSLKGRFTISRDNAKNTVYLQMNSLTPEDTAVYYCNNQLRVPQGAFFWFHGMDYWGQGTQVTVSS | low polyreactivity
14 | QVQLVESGAGLVQEGGSLRLICAASGRTFRGSDMGWYSPAPGKERELVAAITSGGSTNYADSVKGRFTISRDNAKNTVYLHMNSLKPEDPAVYYCNRDTSKYGLWRYIYDYWGQGTQVNVSS | low polyreactivity
15 | QVQLVESGGGLVQAGGSLRLSCAPSGRIFGHYAMGWYRQATGKERELVAAINWRGGSTYYADSVNGRFTISRDNAKNTVYLQMNSLKPEDTAVYYCAADWTKARDSIYDYWGQGTQVTVSS | low polyreactivity
16 | QVQLVESGGGLVQAGGSLRLSCAASGGIFVDNAMGWYRQAPGKERELVATITSTGSTNYADSVKGRFTISRDNAKNTVYLQMNSLKPEDTAVYYCNADGILQDYDYWGQGTQVTVSS | low polyreactivity
17 | QVQLVESGGGLVQAGGSLRLSCAASGYTFSKNTMGWYRQAPGKEREFVAAINWSGGSTYYADSVKGRFTISRDNAKNTVYLQMNSLKPEDTAVYYCAARRGGRRGYDYWGQGTQVTVSS | high polyreactivity
